In the supplement of paper PMC10567573:

B1: VAMP4 (parent)
chain: IMALVAAILLLVIIILIVMKYRT

Variants of: B1
Assay: protein stability index of a GFP-peptide fusion (GPS, HEK-293T) (PSI 1-6); higher = more stable
Details: c terminus: native
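Note: lentivirally expressed fusions sorted by FACS into six bins by GFP to DsRed ratio, PSI derived from sequencing read proportions per bin multiplied by bin number.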

Variant	protein stability index
IMALVAAILLLVIIILIVMKPRT [Y21P]	2.98
IMALVAAILLLVIIILIVMKKRT [Y21K]	1.98
IMALVAAILLLVIIILIVMKRRT [Y21R]	1.81
IMALVAAILLLVIIILIVMKCRT [Y21C]	3.21
IMALVAAILLLVIIILIVMKQRT [Y21Q]	2.99
IMALVAAILLLVIIILIVMKHRT [Y21H]	2.58
IMALVAAILLLVIIILIVMKNRT [Y21N]	3.32
IMALVAAILLLVIIILIVMKMRT [Y21M]	3.42
IMALVAAILLLVIIILIVMKIRT [Y21I]	3.26
IMALVAAILLLVIIILIVMKLRT [Y21L]	3.28
IMALVAAILLLVIIILIVMKWRT [Y21W]	3.48
IMALVAAILLLVIIILIVMKDRT [Y21D]	2.84
IMALVAAILLLVIIILIVMKVRT [Y21V]	2.96
IMALVAAILLLVIIILIVMKSRT [Y21S]	3.37
IMALVAAILLLVIIILIVMKFRT [Y21F]	3.56
IMALVAAILLLVIIILIVMKERT [Y21E]	2.71
IMALVAAILLLVIIILIVMKART [Y21A]	3.11
IMALVAAILLLVIIILIVMKTRT [Y21T]	3.13
IMALVAAILLLVIIILIVMKGRT [Y21G]	3.22
IMALVAAILLLVIIGLIVMKYRT [I15G]	2.98
IMALVAAILLLVIIELIVMKYRT [I15E]	2.43
IMALVAAILLLVIIFLIVMKYRT [I15F]	2.79
IMALVAAILLLVIIVLIVMKYRT [I15V]	3.25
IMALVAAILLLVIIHLIVMKYRT [I15H]	1.69
IMALVAAILLLVIINLIVMKYRT [I15N]	1.95

Variant	protein stability index
IMALVAAILLLVIICLIVMKYRT [I15C]	3.51
IMALVAAILLLVIITLIVMKYRT [I15T]	3.08
IMALVAAILLLVIIWLIVMKYRT [I15W]	1.84
IMALVAAILLLVIIKLIVMKYRT [I15K]	2.04
IMALVAAILLLVIIPLIVMKYRT [I15P]	3.92
IMALVAAILLLVIIALIVMKYRT [I15A]	3.05
IMALVAAILLLVIIMLIVMKYRT [I15M]	2.88
IMALVAAILLLVIIYLIVMKYRT [I15Y]	2.26
IMALVAAILLLVIIRLIVMKYRT [I15R]	1.9
IMALVAAILLLVIISLIVMKYRT [I15S]	2.65
IMALVAAILLLVIIQLIVMKYRT [I15Q]	1.89
IMALVAAILLLVIILLIVMKYRT [I15L]	3.26
IMALVAAILLLVIIDLIVMKYRT [I15D]	2
IMALVAAILLLVIIILIVMKYYT [R22Y]	3.56
IMALVAAILLLVIIILIVMKYIT [R22I]	3.65
IMALVAAILLLVIIILIVMKYCT [R22C]	4.02
IMALVAAILLLVIIILIVMKYHT [R22H]	3.86
IMALVAAILLLVIIILIVMKYWT [R22W]	4.25
IMALVAAILLLVIIILIVMKYVT [R22V]	3.7
IMALVAAILLLVIIILIVMKYQT [R22Q]	3.39
IMALVAAILLLVIIILIVMKYFT [R22F]	3.85
IMALVAAILLLVIIILIVMKYNT [R22N]	3.2
IMALVAAILLLVIIILIVMKYDT [R22D]	4.01
IMALVAAILLLVIIILIVMKYTT [R22T]	3.93
IMALVAAILLLVIIILIVMKYLT [R22L]	3.4

Variant	protein stability index
IMALVAAILLLVIIILIVMKYET [R22E]	3.24
IMALVAAILLLVIIILIVMKYAT [R22A]	3.96
IMALVAAILLLVIIILIVMKYPT [R22P]	3.06
IMALVAAILLLVIIILIVMKYST [R22S]	3.82
IMALVAAILLLVIIILIVMKYMT [R22M]	4.08
IMALVAAILLLVIIILIVMKYGT [R22G]	3.6
IMALVAAILLLVIIILIVMKYKT [R22K]	3.58
IMALVAAILLLVIIILDVMKYRT [I17D]	1.74
IMALVAAILLLVIIILGVMKYRT [I17G]	2.83
IMALVAAILLLVIIILPVMKYRT [I17P]	2.77
IMALVAAILLLVIIILMVMKYRT [I17M]	3.45
IMALVAAILLLVIIILHVMKYRT [I17H]	1.85
IMALVAAILLLVIIILRVMKYRT [I17R]	2.33
IMALVAAILLLVIIILQVMKYRT [I17Q]	2.31
IMALVAAILLLVIIILYVMKYRT [I17Y]	2.21
IMALVAAILLLVIIILNVMKYRT [I17N]	2.79
IMALVAAILLLVIIILCVMKYRT [I17C]	3.11
IMALVAAILLLVIIILAVMKYRT [I17A]	3.54
IMALVAAILLLVIIILVVMKYRT [I17V]	3.11
IMALVAAILLLVIIILLVMKYRT [I17L]	2.96
IMALVAAILLLVIIILWVMKYRT [I17W]	2.44
IMALVAAILLLVIIILEVMKYRT [I17E]	2.57
IMALVAAILLLVIIILFVMKYRT [I17F]	2.58
IMALVAAILLLVIIILTVMKYRT [I17T]	3.26
IMALVAAILLLVIIILSVMKYRT [I17S]	3.07

Variant	protein stability index
IMALVAAILLLVIIILKVMKYRT [I17K]	2.9
IMALVAAILLLVMIILIVMKYRT [I13M]	3.97
IMALVAAILLLVRIILIVMKYRT [I13R]	3.08
IMALVAAILLLVHIILIVMKYRT [I13H]	2.94
IMALVAAILLLVWIILIVMKYRT [I13W]	3.63
IMALVAAILLLVDIILIVMKYRT [I13D]	1.4
IMALVAAILLLVVIILIVMKYRT [I13V]	2.8
IMALVAAILLLVKIILIVMKYRT [I13K]	1.98
IMALVAAILLLVLIILIVMKYRT [I13L]	3.81
IMALVAAILLLVPIILIVMKYRT [I13P]	2.66
IMALVAAILLLVCIILIVMKYRT [I13C]	3.25
IMALVAAILLLVQIILIVMKYRT [I13Q]	2.86
IMALVAAILLLVNIILIVMKYRT [I13N]	3.58
IMALVAAILLLVEIILIVMKYRT [I13E]	1.77
IMALVAAILLLVYIILIVMKYRT [I13Y]	3.22
IMALVAAILLLVSIILIVMKYRT [I13S]	3.36
IMALVAAILLLVFIILIVMKYRT [I13F]	3.46
IMALVAAILLLVGIILIVMKYRT [I13G]	3.21
IMALVAAILLLVTIILIVMKYRT [I13T]	3.82
IMALVAAILLLVAIILIVMKYRT [I13A]	3.86
IMALVAAILLLVIIILIQMKYRT [V18Q]	2.04
IMALVAAILLLVIIILIKMKYRT [V18K]	1.68
IMALVAAILLLVIIILIDMKYRT [V18D]	2.85
IMALVAAILLLVIIILICMKYRT [V18C]	2.93
IMALVAAILLLVIIILIEMKYRT [V18E]	2.91

Variant	protein stability index
IMALVAAILLLVIIILILMKYRT [V18L]	3.26
IMALVAAILLLVIIILIAMKYRT [V18A]	2.6
IMALVAAILLLVIIILIHMKYRT [V18H]	2.38
IMALVAAILLLVIIILIFMKYRT [V18F]	3.09
IMALVAAILLLVIIILIGMKYRT [V18G]	2.66
IMALVAAILLLVIIILIWMKYRT [V18W]	3.21
IMALVAAILLLVIIILITMKYRT [V18T]	2.87
IMALVAAILLLVIIILIYMKYRT [V18Y]	2.97
IMALVAAILLLVIIILINMKYRT [V18N]	2.33
IMALVAAILLLVIIILIRMKYRT [V18R]	1.27
IMALVAAILLLVIIILIMMKYRT [V18M]	3.39
IMALVAAILLLVIIILISMKYRT [V18S]	2.56
IMALVAAILLLVIIILIPMKYRT [V18P]	2.72
IMALVAAILLLVIIILIIMKYRT [V18I]	3.54
IMALVAAILLLVIAILIVMKYRT [I14A]	3.33
IMALVAAILLLVIRILIVMKYRT [I14R]	2.56
IMALVAAILLLVIVILIVMKYRT [I14V]	3.25
IMALVAAILLLVIKILIVMKYRT [I14K]	1.92
IMALVAAILLLVIMILIVMKYRT [I14M]	3.09
IMALVAAILLLVIWILIVMKYRT [I14W]	2.71
IMALVAAILLLVIQILIVMKYRT [I14Q]	2.23
IMALVAAILLLVISILIVMKYRT [I14S]	3.02
IMALVAAILLLVIEILIVMKYRT [I14E]	2.02
IMALVAAILLLVIGILIVMKYRT [I14G]	3.44
IMALVAAILLLVIHILIVMKYRT [I14H]	1.92

Variant	protein stability index
IMALVAAILLLVIYILIVMKYRT [I14Y]	3.26
IMALVAAILLLVIPILIVMKYRT [I14P]	3.1
IMALVAAILLLVIDILIVMKYRT [I14D]	1.5
IMALVAAILLLVITILIVMKYRT [I14T]	3.25
IMALVAAILLLVILILIVMKYRT [I14L]	3.19
IMALVAAILLLVIFILIVMKYRT [I14F]	3.48
IMALVAAILLLVICILIVMKYRT [I14C]	3.36
IMALVAAILLLVINILIVMKYRT [I14N]	2.17
IMALVAAILLLVIIILIVMTYRT [K20T]	3.59
IMALVAAILLLVIIILIVMVYRT [K20V]	4.06
IMALVAAILLLVIIILIVMNYRT [K20N]	3.25
IMALVAAILLLVIIILIVMDYRT [K20D]	3.1
IMALVAAILLLVIIILIVMFYRT [K20F]	3.67
IMALVAAILLLVIIILIVMGYRT [K20G]	3.37
IMALVAAILLLVIIILIVMYYRT [K20Y]	3.38
IMALVAAILLLVIIILIVMIYRT [K20I]	3.75
IMALVAAILLLVIIILIVMLYRT [K20L]	2.93
IMALVAAILLLVIIILIVMMYRT [K20M]	3.62
IMALVAAILLLVIIILIVMPYRT [K20P]	2.62
IMALVAAILLLVIIILIVMAYRT [K20A]	3.68
IMALVAAILLLVIIILIVMQYRT [K20Q]	2.82
IMALVAAILLLVIIILIVMHYRT [K20H]	3.54
IMALVAAILLLVIIILIVMRYRT [K20R]	3.15
IMALVAAILLLVIIILIVMSYRT [K20S]	4.02
IMALVAAILLLVIIILIVMCYRT [K20C]	3.3

Variant	protein stability index
IMALVAAILLLVIIILIVMEYRT [K20E]	3.49
IMALVAAILLLVIIILIVMWYRT [K20W]	4.14
IMALVAAILLLYIIILIVMKYRT [V12Y]	2.47
IMALVAAILLLSIIILIVMKYRT [V12S]	3.17
IMALVAAILLLTIIILIVMKYRT [V12T]	3.16
IMALVAAILLLWIIILIVMKYRT [V12W]	2.65
IMALVAAILLLVIIILIVSKYRT [M19S]	3.33
IMALVAAILLLVIIILIVDKYRT [M19D]	3.19
IMALVAAILLLVIIILIVQKYRT [M19Q]	2.51
IMALVAAILLLVIIILIVCKYRT [M19C]	2.78
IMALVAAILLLVIIILIVGKYRT [M19G]	2.99
IMALVAAILLLVIIILIVPKYRT [M19P]	2.66
IMALVAAILLLVIIILIVLKYRT [M19L]	3.68
IMALVAAILLLVIIILIVFKYRT [M19F]	3.48
IMALVAAILLLVIIILIVVKYRT [M19V]	3.41
IMALVAAILLLVIIILIVWKYRT [M19W]	3.11
IMALVAAILLLVIIILIVAKYRT [M19A]	2.88
IMALVAAILLLVIIILIVTKYRT [M19T]	2.72
IMALVAAILLLVIIILIVRKYRT [M19R]	2.91
IMALVAAILLLVIIILIVNKYRT [M19N]	3.33
IMALVAAILLLVIIILIVHKYRT [M19H]	3.08
IMALVAAILLLVIIILIVIKYRT [M19I]	3.64
IMALVAAILLLVIIILIVEKYRT [M19E]	3.07
IMALVAAILLLVIIILIVYKYRT [M19Y]	3.09
IMALVAAILLLVIIILIVKKYRT [M19K]	2.77

Variant	protein stability index
IMALVAAILLLVIIIVIVMKYRT [L16V]	3.35
IMALVAAILLLVIIIWIVMKYRT [L16W]	3.28
IMALVAAILLLVIIIMIVMKYRT [L16M]	2.39
IMALVAAILLLVIIIDIVMKYRT [L16D]	2.44
IMALVAAILLLVIIIGIVMKYRT [L16G]	3.18
IMALVAAILLLVIIIQIVMKYRT [L16Q]	3.13
IMALVAAILLLVIIIHIVMKYRT [L16H]	3.18
IMALVAAILLLVIIINIVMKYRT [L16N]	2.73
IMALVAAILLLVIIICIVMKYRT [L16C]	3.65
IMALVAAILLLVIIIFIVMKYRT [L16F]	3.6
IMALVAAILLLVIIIEIVMKYRT [L16E]	3.2
IMALVAAILLLVIIISIVMKYRT [L16S]	3.5
IMALVAAILLLVIIIIIVMKYRT [L16I]	3.44
IMALVAAILLLVIIIKIVMKYRT [L16K]	2.73
IMALVAAILLLVIIITIVMKYRT [L16T]	3.47
IMALVAAILLLVIIIPIVMKYRT [L16P]	3.2
IMALVAAILLLVIIIRIVMKYRT [L16R]	2.33
IMALVAAILLLVIIIYIVMKYRT [L16Y]	3.25
IMALVAAILLLVIIIAIVMKYRT [L16A]	3.57
